Reference: patent publication US20210253701A1 (Regeneron, published 2021)
Positions count from the first letter of the chain named.

B1: BSMUC16/CD3-001 (bispecific antibody)
chain 1: QVQLVESGGGLVKPGGSLRLSCAASGFTFSNYYMSWVRQAPGKGLEWISYISGRGSTIFYADSVKGRITISRDNAKNSLFLQMNSLRAEDTAVYFCVKDRGGYSPYWGQGTLVTVSS
chain 2: EVQLVESGGGLVQPGRSLRLSCAASGFTFDDYSMHWVRQAPGKGLEWVSGISWNSGSKGYADSVKGRFTISRDNAKNSLYLQMNSLRAEDTALYYCAKYGSGYGKFYHYGLDVWGQGTTVTVSS
chain 3: not shown
B2: BSMUC16/CD3-002 (bispecific antibody)
chain 1: B1 chain 1
chain 2: B1 chain 2 with K58I, Y99D, H108Y, L111M
chain 3: not shown
B3: BSPSMA/CD3-300 (bispecific antibody)
chain 1: QVQLVESGGGVVQPGRSLRLSCAASGFTFSSYGMHWVRQAPGKGLEWVAVISYAGNNKYYADSVKGRFTVSRDNSKKTLYLQMNSLRSEDTAVYYCAKDSYYDFLTDPDVLDIWGQGTMVTVSS
chain 2: B1 chain 2 with K58I, Y99D, K105Y, H108Y, L111M
chain 3: DIQMTQSPSSLSASVGDSVTITCRASQSINNYLNWYQQKPGKAPKLLIYTASSLLSGVPSRFSGSGSGTDFTLTISGLHPEDFATYFCQQSFSTPPITFGQGTRLDIK
B4: BSPSMA/CD3-200 (bispecific antibody)
chain 1: B3 chain 1
chain 2: B1 chain 2 with S33A, K58I, Y99D, K105Y, H108Y, L111M
chain 3: B3 chain 3
B5: BSPSMA/CD3-004 (bispecific antibody)
chain 1: B3 chain 1
chain 2: B1 chain 2 with K58I, Y99D, H108Y, L111M
chain 3: B3 chain 3
B6: BSPSMA/CD3-400 (bispecific antibody)
chain 1: B3 chain 1
chain 2: B1 chain 2 with S33A, K58I, Y99D, H108Y, L111M
chain 3: B3 chain 3
B7: BSPSMA/CD3-1800 (bispecific antibody)
chain 1: B3 chain 1
chain 2: B1 chain 2 with K58I, Y99D, H108Y
chain 3: B3 chain 3
B8: BSPSMA/CD3-1300 (bispecific antibody)
chain 1: B3 chain 1
chain 2: B1 chain 2 with K58I, H108Y
chain 3: B3 chain 3
B9: BSPSMA/CD3-1000 (bispecific antibody)
chain 1: B3 chain 1
chain 2: B1 chain 2 with H108Y
chain 3: B3 chain 3
B10: BSPSMA/CD3-900 (bispecific antibody)
chain 1: B3 chain 1
chain 2: B1 chain 2 with Y99D
chain 3: B3 chain 3
B11: BSPSMA/CD3-1100 (bispecific antibody)
chain 1: B3 chain 1
chain 2: B1 chain 2 with L111M
chain 3: B3 chain 3
B12: BSPSMA/CD3-1700 (bispecific antibody)
chain 1: B3 chain 1
chain 2: B1 chain 2 with H108Y, L111M
chain 3: B3 chain 3
B13: BSPSMA/CD3-005 (bispecific antibody)
chain 1: B3 chain 1
chain 2: B1 chain 2 with K58I, H108Y, L111M
chain 3: B3 chain 3
B14: BSPSMA/CD3-800 (bispecific antibody)
chain 1: B3 chain 1
chain 2: B1 chain 2 with K58I
chain 3: B3 chain 3
B15: BSPSMA/CD3-1400 (bispecific antibody)
chain 1: B3 chain 1
chain 2: B1 chain 2 with K58I, L111M
chain 3: B3 chain 3
B16: BSPSMA/CD3-1600 (bispecific antibody)
chain 1: B3 chain 1
chain 2: B1 chain 2 with Y99D, L111M
chain 3: B3 chain 3
B17: BSPSMA/CD3-1900 (bispecific antibody)
chain 1: B3 chain 1
chain 2: B1 chain 2 with K58I, Y99D, L111M
chain 3: B3 chain 3
B18: BSPSMA/CD3-1200 (bispecific antibody)
chain 1: B3 chain 1
chain 2: B1 chain 2 with K58I, Y99D
chain 3: B3 chain 3
B19: BSPSMA/CD3-2100 (bispecific antibody)
chain 1: B3 chain 1
chain 2: B1 chain 2 with Y99D, H108Y, L111M
chain 3: B3 chain 3
B20: BSPSMA/CD3-1500 (bispecific antibody)
chain 1: B3 chain 1
chain 2: B1 chain 2 with Y99D, H108Y
chain 3: B3 chain 3

The binders below were run against T1, human CD3 (cell surface-expressed) (human, UniProt P07766 23-207; P04234 22-171) (assay: cell-based or functional assay).
T1 sequence (P07766 23-207 limits assumed, chain 1 of 2): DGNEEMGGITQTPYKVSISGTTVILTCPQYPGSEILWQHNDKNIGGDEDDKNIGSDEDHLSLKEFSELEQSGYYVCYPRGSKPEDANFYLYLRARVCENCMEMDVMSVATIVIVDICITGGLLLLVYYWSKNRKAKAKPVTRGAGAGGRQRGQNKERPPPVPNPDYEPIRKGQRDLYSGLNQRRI
T1 sequence (P04234 22-171 limits assumed, chain 2 of 2): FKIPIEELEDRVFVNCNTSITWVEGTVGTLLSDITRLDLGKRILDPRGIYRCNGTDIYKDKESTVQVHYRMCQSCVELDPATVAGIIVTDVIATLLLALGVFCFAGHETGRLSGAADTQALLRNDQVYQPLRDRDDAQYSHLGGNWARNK

Point of comparison: B1, “T cell activation EC50” value 0.00588 nM. Against it:
- B2 — 1.7-fold higher, 0.0101 nM

The binders below were run against human MUC16 on OVCAR3 cells (human) (assay: cell-based or functional assay).

Point of comparison: B2, “OVCAR3 cell depletion EC50” value 0.0306 nM. Against it:
- B1 — within 1.5-fold, 0.0224 nM

Each binder was assayed against T2, soluble heterodimeric hCD3ε/δ.mFc protein (human) (assay: SPR 37 C, antigen-capture format).
T2 construct: also called soluble human CD3; human CD3 heterodimeric protein
T2 sequence (P07766 23-126, stated change not applied, chain 1 of 2): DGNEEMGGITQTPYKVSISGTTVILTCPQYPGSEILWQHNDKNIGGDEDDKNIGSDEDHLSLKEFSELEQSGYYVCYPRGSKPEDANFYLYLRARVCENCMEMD
T2 sequence (P04234 22-105, stated change not applied, chain 2 of 2, further chain): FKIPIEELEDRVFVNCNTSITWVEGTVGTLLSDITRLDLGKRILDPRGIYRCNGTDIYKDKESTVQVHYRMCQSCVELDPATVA

B3 and B4 cannot be ordered by Kd: > 500 nM for the first, > 500 nM for the second.

B5 and B6 cannot be ordered by Kd: > 500 nM for the first, > 500 nM for the second.

In the case of B7, the Kd is reported as > 500 nM.

Molecular target: T2, soluble heterodimeric hCD3ε/δ.mFc …
Assay: SPR 37 C, antigen-capture format
Remark: another data set of the same source

Point of comparison: B19, T½ 4.9 min. Against it:
- B8 — within 1.5-fold, 4.7 min
- B9 — 2.7-fold lower, 1.8 min
- B10 — 2.1-fold lower, 2.3 min
- B11 — 2.3-fold higher, 11.3 min
- B12 — within 1.5-fold, 3.8 min
- B13 — 2.5-fold lower, 2 min
- B14 — 2-fold higher, 10 min
- B15 — within 1.5-fold, 3.5 min
- B16 — within 1.5-fold, 4.7 min
- B17 — 2.1-fold lower, 2.3 min
- B18 — within 1.5-fold, 4.7 min
- B20 — 2.6-fold lower, 1.9 min

The binders below were run against T1, human CD3 (cell surface-expressed) (assay: FACS, Jurkat cells).

B1 was tested, and the EC50 was 3.21 nM.

What follows are binders tested against T3, human MUC16 on OVCAR3 cells (human) (assay: FACS, OVCAR3 (MUC16+) cells).
T3 construct: Endogenous MUC16 of the OVCAR3 cell line; also called Mucin 16

Point of comparison: B2, EC50 2.69 nM. Against it:
- B1 — 2.2-fold lower, 1.2 nM
